Reference: patent US20220195015A1 (published 2022)

B1: C021 (antibody, V domains shown)
VH: QVQLQESGPGLVKPSQTLSLTCTVSGGSISSGGYYWSWIRQHPGKGLEWIGYIYYSGSTYYNPSLKSRVTISVDTSKNQFSLKLSSVTAADTAVYYCARVWQYYDSSGSFDYWGQGTLVTVSS
VL: not shown
B2: C002 (antibody, V domains shown)
VH: EVQLVESGGGVVQPGRSLRLSCAASGFTFSIYGMHWVRQAPGKGLEWVAVISYDGSNKYYADSVKGRFTISRDNSKNTLYLQMNSLRAEDTAVYYCAKEGRPSDIVVVVAFDYWGQGTLVTVSS
VL: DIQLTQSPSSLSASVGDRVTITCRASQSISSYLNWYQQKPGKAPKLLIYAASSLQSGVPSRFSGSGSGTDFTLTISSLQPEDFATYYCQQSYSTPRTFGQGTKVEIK
B3: C584 (antibody, V domains shown)
VH: EVQLVESGGGLVQPGGSLRLSCAASGFTFSTYDMHWVRQATGKGLEWVSAIGTAGDKYYPGSVKGRFTISRENAKNSLYLQMNSLRAGDTAVYYCVRAGYSSGWPLYWYFDLWGRGTLVTVSS
VL: DIQMTQSPSSLSASVGDRVTITCRASQSISSYLNWYQQKPGKAPKFLIYAASSLQSGVPSRFSGSGSGTDFTLTISNLQPEDFATYYCQQSYRTPPEFTFGPGTKVDIK
B4: C589 (antibody, V domains shown)
VH: QVQLQESGPGLVKPSQTLSLTCTVSGGSISSGDYYWSWIRQPPGKGLEWIGYIYYSGSTNYNPSLRSRVTISVDTSKNQFSLRLRSVTAADTAVYYCARDAIGSASYGVEYFQHWGQGTLVTVSS
VL: not shown
B5: C590 (antibody, V domains shown)
VH: QVQLVQSGAEVKKPGASVKVSCKVSGYNLTELSMYWVRQAPGKGLEWMGGFDPEDGGPIHAQKFQGRVTMTEDPSTDTAYMELRSLRSEDTALYYCATGGLFMIRGLEIWGRGTLVTVSS
VL: EIVLTQSPGTLSLSPGERATLSCRASQSISYTSLAWYQQKPGQAPRLLIFGASRGATGTPDRFSGSWSGTDFTLTISRLEPEDFAVYYCQQYGNSPRLSFGGGTKVEIK
B6: C587 (antibody, V domains shown)
VH: QVQLVQSGAEVKKSGSSVKVSCKASGGSFSSYAISWVRQAPGQGLEWMGGIIPIFGTAKYAQKFQGRVTITADESTSTAYMELSSLRSEDTAVYYCASRWEQLNGGSWHYFDYWGQGTLVTVSS
VL: QSALTQPASVSGSPGQSITISCTGTRSDVGRNNLVSWYQHHPGKAPKVMIYEGSKRPSGVSTRFSGSKSGNTASLTISGLQAEDEADYYCCSYAGSSTFEGVFGGGTKLTVL
B7: C586 (antibody, V domains shown)
VH: EVQLVESGGGLIQPGGSLRLSCTASGLIVSSNYMSWIRQAPGKGLEWVSLIYSGGSTFYADSVKGRFTISRDNSKNTLFLHMNSLRAEDTAVYYCARHPYGTDVWGQGTTVTVSS
VL: DIQMTQSPSSLSASVGDRVTITCQASQDIVKYLNWYQQKSGKAPKLLIHDASNLETGVTSRFSGSGSGTHFTFTISSLQPEDLATYYCQQYDNLPITFGQGTRLEIK
B8: C582 (antibody, V domains shown)
VH: QVQLVESGGGVVQPGRSLRLSCVASGFTFSYFDMHWVRQAPGKGLEWVALISHDGSTTFYGDSARGRFTISRDNSRNTLDLQMNSLRPEDTAVYFCAKPVDAAMFDFWGQGTLVTVS
VL: SYELTQPPSVSVAPGKTARITCGGNNIGSKSVHWYQQRPGQAPVLVIYYDSDRPSGIPERFSGSNSGNTATLTISRVEAGDEADFYCQVWDRSTNHLVVFGGGTQLTVL
B9: C585 (antibody, V domains shown)
VH: QVQLQESGPGLVKPSETLSLTCTVSGDSISSYFWSWIRQPPGRGLEWIGYIHDSVNTNYNPSLKSRVTISVDTSKSQFSLRLSSVTAADTAVYYCARCAWLRGSFDYWGQGTLVTVSS
VL: NFMLTQPHSVSESPGKTVTISCTGSSGSIASNYVQWYQQRPGSAPTTVIYEDNQRPSGVPDRFSGSIDSSSNSASLTISGLKTEDEADYYCQSYDFSSHYVFGTGTKVTVL
B10: C583 (antibody, V domains shown)
VH: EVQLVESGGGLIQPGGSLRLSCAASILTVSRNYMSWVRQAPGKGLEWVSSIYSGGTTYYADSVKGRFTISRDDSKNTLYLQMNSLRAEDTAVYYCARPVVGGRAGMDVWGQGTTVTVSS
VL: DIQMTQSPSSLSASVGDRVTITCQASQDINKYLNWYQQKPGKAPKLLIYDASNLETGVPSRFSGSGSGTDFTFTISSLQPEDIGTFYCLHNDNPPLTFGGGTKVEIK
B11: C588 (antibody, V domains shown)
VH: EVQLVESGGGLVQPGGSLKLSCAASGFTFSGSAMHWVRQASGKGLEWVGRIRNKANSYATAYGASVRGRFTVSRDDSKNTAYLQMNSLKIEDTAVYYCTKDIAAGIPALNWFDSWGQGTLVTVSS
VL: EIVLTQSPATLSLSPGERATLSCRASQSVSSYLAWYQQKPGQAPRLLIYDASNRATGIPARFSGSGSGTDFTLTISSLEPEDFAVYYCQQHTNWPPRITFGGGTKVEIK
B12: C596 (antibody, V domains shown)
VH: QVQLVESGGGVVQPGRSLRLSCAASGITFSHYGMHWVRQAPGKGLEWVALISSDGSKKYYADSVKGRFTISRDNSKSTLYLQMNSLRAEDTAIYYCAKDLGYYYGPPYGPDYWGQGTLVTVSS
VL: DIQMTQSPSSLSASVGDRVTITCQASQDVSNSLNWYQQKPGKAPKLLIYDASNLETGVPSRFSGSGSGTDFSFTISSLQPEDIATYYCLQYDNFSMYTFGQGTKLEIK
B13: C593 (antibody, V domains shown)
VH: QVQLVQSGAEVKKPGASVKVSCKASGYTFTSYDINWVRQAPGQGLEWMGWMNPNSGNTDYAQKFQGRFTMTRNTSISTAYMELSSLRSEDTAVYYCASRRWDPLTFYYYMVVWGKGTTVTVSS
VL: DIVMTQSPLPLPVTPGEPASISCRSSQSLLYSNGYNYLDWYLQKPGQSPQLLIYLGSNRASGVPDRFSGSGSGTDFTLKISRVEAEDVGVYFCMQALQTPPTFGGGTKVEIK
B14: C589 (antibody, V domains shown)
VH: QVQLQESGPGLVKPSQTLSLTCTVSGGSISSGDYYWSWIRQPPGKGLEWIGYIYYSGSTNYNPSLRSRVTISVDTSKNQFSLRLRSVTAADTAVYYCARDAIGSASYGVEYFQHWGQGTLVTVSS
VL: not shown
B15: C590 (antibody, V domains shown)
VH: QVQLVQSGAEVKKPGASVKVSCKVSGYNLTELSMYWVRQAPGKGLEWMGGFDPEDGGPIHAQKFQGRVTMTEDPSTDTAYMELRSLRSEDTALYYCATGGLFMIRGLEIWGRGTLVTVSS
VL: EIVLTQSPGTLSLSPGERATLSCRASQSISYTSLAWYQQKPGQAPRLLIFGASRGATGTPDRFSGSWSGTDFTLTISRLEPEDFAVYYCQQYGNSPRLSFGGGTKVEIK
B16: C587 (antibody, V domains shown)
VH: QVQLVQSGAEVKKSGSSVKVSCKASGGSFSSYAISWVRQAPGQGLEWMGGIIPIFGTAKYAQKFQGRVTITADESTSTAYMELSSLRSEDTAVYYCASRWEQLNGGSWHYFDYWGQGTLVTVSS
VL: QSALTQPASVSGSPGQSITISCTGTRSDVGRNNLVSWYQHHPGKAPKVMIYEGSKRPSGVSTRFSGSKSGNTASLTISGLQAEDEADYYCCSYAGSSTFEGVFGGGTKLTVL
B17: C594 (antibody, V domains shown)
VH: QVQLVESGGGVVQPGRSLRLSCAASGFTFSSYGMHWVRQAPGKGLEWVAVISDDGSNKYYADSVKGRFTISRDNSKNTLYLQMNSLRAEDTAVYYCAKSWWLSENWFDPWGQGTLVTVSS
VL: EIVMTQSPATLSVSPGERATLSCRASQSVSSNLAWYQQKPGQAPRLLIYGASTRATGIPARFSGTGSGTEFTLTISSLQSEDFAVYYCQQYNNWPLTFGGGTKVEIK
B18: C595 (antibody, V domains shown)
VH: QVQLVESGGGVVQAGRSLRLSCAASGFTFSSFGLHWVRQAPGKGLEWVAVISDDGANKYYADSVKGRFTISRDNSKNTLYLQMNSLRADDTAKYYCAKSWWLSENWFDPWGQGTLVTVSS
VL: EIVMTQSPATLSVSPGERATLSCRASQSVRSNLAWYQQKPGQAPRLLIYGASTRATGIPARFSGSGSGTDFTLTISSLQSEDFAVYYCQQYNNWPLTFGGGTKVEIK
B19: C591 (antibody, V domains shown)
VH: QVQLVQSGAEVKKPGASVKVSCKASGYILTDYFIHWVRQAPGQGLEWMGWINPNSGGTNYAQKFQGRVTMTRDTSISTAYMELSRLRSDDTAVYHCARYKGTTVNTNYYYGMDVWGQGTTVTVSS
VL: not shown
B20: C592 (antibody, V domains shown)
VH: QVQLVQSGAEVKKPGASVKVSCKASGYTFTDYFNHWVRQAPGQGLEWMGWINPNSGGTNSAQKFQGRVTMTRDTSITTVYMELSRLRSDDTAVYYCARYKGTTVNTNYYYGMDVWGQGTTVTVSS
VL: SYELTQPPSVSVSPGQTASITCSGDKLRNKYACWYQQKAGQSPMLVIYQDTKRPSGIPERFSGSNSGNTATLTISGTQAMDEADYYCQAWDISTVVFGGGTKLTVL
B21: C588 (antibody, V domains shown)
VH: EVQLVESGGGLVQPGGSLKLSCAASGFTFSGSAMHWVRQASGKGLEWVGRIRNKANSYATAYGASVRGRFTVSRDDSKNTAYLQMNSLKIEDTAVYYCTKDIAAGIPALNWFDSWGQGTLVTVSS
VL: EIVLTQSPATLSLSPGERATLSCRASQSVSSYLAWYQQKPGQAPRLLIYDASNRATGIPARFSGSGSGTDFTLTISSLEPEDFAVYYCQQHTNWPPRITFGGGTKVEIK

These binders were tested against SARS-CoV-2 spike receptor binding domain (RBD), wild type (SARS-CoV-2, UniProt P0DTC2 319-539) (assay: ELISA on coated RBD protein).
B1 was tested, and the EC50 was 4.19 ng/mL.
Binder B2 has an EC50 of 1.98 ng/mL.

Each binder was assayed against SARS-CoV-2 RBD (S protein residues 319-539), wild type (SARS-CoV-2, UniProt P0DTC2 319-539) (assay: ELISA, RBD coated on plate, mAb titrated).
Binder B3 has an EC50 of 10.5 ng/mL.
B4 was tested, and the EC50 was 6.61 ng/mL.
B5 gave an EC50 of 2.81 ng/mL.
For B6, the EC50 was 4.39 ng/mL.
B7 gave an EC50 of 5.42 ng/mL.
B8 gave an EC50 of 8.43 ng/mL.
Work on B9 yielded an EC50 of 11 ng/mL.
In the case of B10, the EC50 is reported as 4.42 ng/mL.
With B11 the EC50 was 1.36 ng/mL.

What follows are binders tested against SARS-CoV-2 receptor binding domain (RBD), wild type (SARS-CoV-2, UniProt P0DTC2 319-539) (assay: ELISA, RBD coated on the plate, antibody titrated).
B12 gave an EC50 of 21 ng/mL.
For B13, the EC50 was 4.36 ng/mL.
B14 gave an EC50 of 6.61 ng/mL.
For B15, the EC50 was 2.81 ng/mL.
B16 showed an EC50 of 4.39 ng/mL.
B17 was tested, and the EC50 was 2.63 ng/mL.
Binder B18 has an EC50 of 2.04 ng/mL.
B19 was tested, and the EC50 was 3.83 ng/mL.
B20 was tested, and the EC50 was 6 ng/mL.
In the case of B21, the EC50 is reported as 1.36 ng/mL.
